According to patent US20110200552A1:

Key:
[1] = biological target: rhTRAIL variant D218H; assay: competitive ELISA, soluble DR5-Ig varied, immobilised DR4-Ig
[2] = biological target: rhTRAIL variant D218Y; assay: as above
[3] = biological target: death receptor 5 (DR5, TRAIL-R2) on cells (UniProt O14763); assay: cell-based or functional assay
[4] = biological target: death receptor 4 (DR4, TRAIL-R1) on cells (UniProt O00220); assay: cell-based or functional assay

Chain of WT rhTRAIL (TRAIL amino acids 114-281 preceded by a methionine) (ligand) (P50591 114-281): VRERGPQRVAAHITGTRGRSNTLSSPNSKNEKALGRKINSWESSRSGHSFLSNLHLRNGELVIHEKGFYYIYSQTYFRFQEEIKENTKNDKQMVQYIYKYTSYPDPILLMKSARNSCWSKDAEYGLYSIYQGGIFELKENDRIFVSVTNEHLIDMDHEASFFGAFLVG

Row | fold less efficient in achieving 50% reduction of binding, against rhTRAIL WT [1] | fold less efficient in achieving 50% reduction of binding, against rhTRAIL WT [2] | Substance | apoptosis (Annexin V positivity) in Colo205 cells [3] | apoptosis (Annexin V staining) in EM-2 cells, 24 h; fold lower concentration than WT [4] | apoptosis (Annexin V staining) in ML-1 cells, 24 h; fold lower concentration than WT [4]
1 | > 9 fold | > 9 fold | DR5-Ig receptor chimera (from UniProt O14763 56-182) (Fc fusion) | – | – | –
2 | – | – | WT rhTRAIL (TRAIL amino acids 114-281 preceded by a methionine) (ligand) | 20 ng/mL | – | –
3 | – | – | rhTRAIL variant R149I (ligand) | – | 5 fold | 2 fold
4 | – | – | rhTRAIL variant S215D (ligand) | – | 5 fold | 2 fold
